Where two headings read alike, the source gives them in different places. One block for each binder: values may come before it. Positions of bridges follow the written chain, without caps; N, C: chain ends. Non-standard residues stand in square brackets, D forms with d. No end group written: not given here. hArg = N=C(N)NCCCC[C@H](N)C(=O)O; Aib = CC(C)(N)C(=O)O
How the values were obtained:
[1] = molecular target: T1, P1R-DelNt (truncated human P1R deleted for residues 24-181) (human, UniProt Q03431 182-593); assay: cell-based or functional assay
T1 sequence (looked up): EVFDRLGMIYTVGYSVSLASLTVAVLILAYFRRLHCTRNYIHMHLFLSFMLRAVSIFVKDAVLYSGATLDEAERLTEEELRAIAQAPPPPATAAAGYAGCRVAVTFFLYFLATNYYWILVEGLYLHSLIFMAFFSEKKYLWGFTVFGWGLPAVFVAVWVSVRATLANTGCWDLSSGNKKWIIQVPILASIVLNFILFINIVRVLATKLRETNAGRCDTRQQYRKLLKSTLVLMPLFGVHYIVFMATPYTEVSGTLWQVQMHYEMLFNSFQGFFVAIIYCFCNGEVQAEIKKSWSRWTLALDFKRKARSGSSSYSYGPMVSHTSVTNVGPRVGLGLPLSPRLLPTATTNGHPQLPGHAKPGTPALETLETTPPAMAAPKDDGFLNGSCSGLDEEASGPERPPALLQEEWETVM

[2] = molecular target: T2, PTH/PTHrP receptor (P1R), wild-type, full-length (human, UniProt Q03431 27-593); assay: cell-based or functional assay
T2 sequence (looked up): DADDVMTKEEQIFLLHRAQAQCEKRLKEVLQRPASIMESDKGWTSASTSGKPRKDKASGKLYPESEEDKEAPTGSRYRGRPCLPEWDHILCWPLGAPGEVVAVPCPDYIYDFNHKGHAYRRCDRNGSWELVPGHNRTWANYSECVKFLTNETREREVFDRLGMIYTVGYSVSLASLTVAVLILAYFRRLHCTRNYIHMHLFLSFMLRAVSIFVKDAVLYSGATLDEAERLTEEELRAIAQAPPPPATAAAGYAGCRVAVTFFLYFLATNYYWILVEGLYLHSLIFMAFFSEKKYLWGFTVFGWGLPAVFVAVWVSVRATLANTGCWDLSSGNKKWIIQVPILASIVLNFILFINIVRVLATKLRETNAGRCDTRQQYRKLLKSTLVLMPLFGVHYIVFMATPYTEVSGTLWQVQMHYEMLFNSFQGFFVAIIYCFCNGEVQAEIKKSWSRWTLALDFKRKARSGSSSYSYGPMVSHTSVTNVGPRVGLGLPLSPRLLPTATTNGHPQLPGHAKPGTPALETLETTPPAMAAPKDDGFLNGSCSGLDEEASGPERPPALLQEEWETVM

[3] = molecular target: T2, PTH/PTHrP receptor (P1R), wild-type, …; assay: cell-based or functional assay; remark: listed apart in the source
[4] = molecular target: T1, P1R-DelNt (truncated human P1R deleted …); assay: cell-based or functional assay; remark: listed apart in the source
[5] = molecular target: T2, PTH/PTHrP receptor (P1R), wild-type, …; assay: cell-based or functional assay; remark: listed apart in the source
[6] = molecular target: T2, PTH/PTHrP receptor (P1R), wild-type, …; assay: competition with 125I-[Ala3,12,Gln10,Har11,Trp14,Arg19,Tyr21]PTH(1-21)-amide tracer on HKRK-B28 cells expressing P1R
Protocol: Competition Binding. Binding reactions were performed with […] cells or in COS-7 cells in 24-well plates. The cells were rinsed with 0.5 mL of binding buffer, and then treated successively with 100 μL binding buffer, 100 μL of binding buffer containing various amounts of unlabeled competitor ligand, and 100 μL of binding buffer containing ca. 100,000 cpm of ¹²⁵I-[M]PTH(1-21)(SEQ. ID. NO. 16) or ¹²⁵I-[Aib^{1,3},M]PTH(1-21)(SEQ. ID. NO. 17) (ca. 26 fmol; final volume=300 μL). Incubations were 4 to 6 h at 4° C., at which time near equilibrium conditions were attained. Cells were then placed on ice, the binding medium was removed, and the monolayer was rinsed three times with 0.5 mL of cold binding buffer. The cells were subsequently lysed with 0.5 mL 5N NaOH and counted for radioactivity. For each tracer and in each experiment, the non-specific binding was determined as the radioactivity that bound in the presence of the same unlabeled peptide at a concentration of 1 μM, and was ˜1% of total radioactivity added for each tracer. The maximum specific binding (B₀) was the total radioactivity bound in the absence of competing ligand, corrected for nonspecific binding, and for each tracer, ranged from 8% to 20% of the total radioactivity added. Nonlinear regression was used to calculate binding IC₅₀ values (see below). Scatchard transformations of homologous competition binding data derived from studies with 26 fmol of ¹²⁵I-[Aib^{1,3},M]PTH(1-21) (SEQ. ID. NO. 17) were employed for estimations of apparent equilibrium dissociation constant (kDapps) and total number of ligand binding sites (Bₘₐₓ), assuming a single class of binding sites and equal affinities of the iodinated and non iodinated ligand.
The peptide PTH(1-34) ([Tyr³⁴]bPTH(1-34)NH₂) (SEQ. ID. NO. 10) and analogs containing substitutions at positions 6 and/or 10 in place of Gln and Asn, respectively, were evaluated in HKRK-B28 cells for the capacity to stimulate cAMP accumulation, and to inhibit the binding of ¹²⁵I-[Ala^{3,12}, Gln¹⁰, Har¹¹, Trp¹⁴,Arg¹⁹, Tyr²¹]PTH(1-21)-amide (SEQ. ID. NO. 30) tracer radioligand.

[7] = molecular target: T2, PTH/PTHrP receptor (P1R), wild-type, …; assay: cell-based or functional assay; remark: listed apart in the source

Binder: AVAEIALMHQR-NH2 [[Ala^6]PTH(1-11)]
cAMP EC50 [1]: 320 µM
cAMP Emax (%) [1]: 14%
cAMP EC50 [2]: 330 µM
cAMP Emax (%) [2]: 26%

B3: [(Glu^6, Lys^10)lac.]PTH(1-14), cyclized via a 6-10 lactam bridge (peptide)
peptide: AVAEIELMHK[hArg]AKW-NH2
modifications: lactam 6-10; N-terminus assumed
SMILES: CC[C@H](C)[C@H](NC(=O)[C@H](CCC(=O)O)NC(=O)[C@H](C)NC(=O)[C@@H](NC(=O)[C@H](C)N)C(C)C)C(=O)N[C@H]1CCC(=O)NCCCC[C@@H](C(=O)N[C@@H](CCCCNC(=N)N)C(=O)N[C@@H](C)C(=O)N[C@@H](CCCCN)C(=O)N[C@@H](Cc2c[nH]c3ccccc23)C(N)=O)NC(=O)[C@H](Cc2c[nH]cn2)NC(=O)[C@H](CCSC)NC(=O)[C@H](CC(C)C)NC1=O
cAMP EC50 [3]: 27 µM
cAMP Emax (%) [3]: 52%

B5: PTH(1-34) ([Tyr^34]hPTH(1-34)amide) (peptide)
peptide: SVSEIQLMHNLGKHLNSMERVEWLRKKLQDVHNY-NH2
notes: Human PTH(1-34) analog with Tyr at 34; also called [Tyr^34]hPTH(1-34)NH2; PTH(1-34) scaffold peptide
cAMP Emax (%) [4]: 44%
cAMP EC50 [5]: 0.27 µM
cAMP Emax (%) [5]: 100%
IC50 [6]: 6 µM
cAMP EC50 [7]: 1.9 µM
cAMP Emax (%) [7]: 100%

B6: [Ala^6]PTH(1-34) (peptide)
peptide: SVSEIALMHNLGKHLNSMERVEWLRKKLQDVHNY-NH2
notes: Gln6->Ala analog of [Tyr^34]hPTH(1-34)amide
cAMP EC50 [4]: > 100 µM
cAMP Emax (%) [4]: 4.5%
cAMP EC50 [5]: 0.17 µM
cAMP Emax (%) [5]: 104%
IC50 [6]: 4.5 µM
cAMP EC50 [7]: 4.9 µM
cAMP Emax (%) [7]: 105%

B7: [Ala^6,10]PTH(1-34) (peptide)
peptide: SVSEIALMHALGKHLNSMERVEWLRKKLQDVHNY-NH2
notes: Double Ala analog of [Tyr^34]hPTH(1-34)amide
cAMP EC50 [4]: 19 µM
cAMP Emax (%) [4]: 44%
cAMP EC50 [5]: 0.3 µM
cAMP Emax (%) [5]: 121%
IC50 [6]: 3.9 µM
cAMP EC50 [7]: 2.2 µM
cAMP Emax (%) [7]: 107%

B10: [Glu^6, Lys^10]PTH(1-14) (linear) (peptide)
peptide: AVAEIELMHK[hArg]AKW-NH2
modifications: N-terminus assumed
SMILES: CC[C@H](C)[C@H](NC(=O)[C@H](CCC(=O)O)NC(=O)[C@H](C)NC(=O)[C@@H](NC(=O)[C@H](C)N)C(C)C)C(=O)N[C@@H](CCC(=O)O)C(=O)N[C@@H](CC(C)C)C(=O)N[C@@H](CCSC)C(=O)N[C@@H](Cc1c[nH]cn1)C(=O)N[C@@H](CCCCN)C(=O)N[C@@H](CCCCNC(=N)N)C(=O)N[C@@H](C)C(=O)N[C@@H](CCCCN)C(=O)N[C@@H](Cc1c[nH]c2ccccc12)C(N)=O
cAMP EC50 [3]: 40 µM
cAMP Emax (%) [3]: 52%

Continued, values first:

cAMP EC50 [1]: 0.024 µM
cAMP Emax (%) [1]: 100%
B1: [Aib^1,3, Ala^6,10]PTH(1-14) (peptide)
peptide: [Aib]V[Aib]EIALMHA[hArg]AKW-NH2
modifications: N-terminus assumed
SMILES: CC[C@H](C)[C@H](NC(=O)[C@H](CCC(=O)O)NC(=O)C(C)(C)NC(=O)[C@@H](NC(=O)C(C)(C)N)C(C)C)C(=O)N[C@@H](C)C(=O)N[C@@H](CC(C)C)C(=O)N[C@@H](CCSC)C(=O)N[C@@H](Cc1c[nH]cn1)C(=O)N[C@@H](C)C(=O)N[C@@H](CCCCNC(=N)N)C(=O)N[C@@H](C)C(=O)N[C@@H](CCCCN)C(=O)N[C@@H](Cc1c[nH]c2ccccc12)C(N)=O

cAMP EC50 [3]: 0.12 µM
cAMP Emax (%) [3]: 100%
B2: [M]PTH(1-14) ([Ala^1,3,12,Gln^10,Har^11,Trp^14]PTH(1-14)amide; AlaValAlaGluIleGlnLeuMetHisGlnHarAlaLysTrp-amide) (peptide)
peptide: AVAEIQLMHQ[hArg]AKW-NH2
modifications: N-terminus assumed
SMILES: CC[C@H](C)[C@H](NC(=O)[C@H](CCC(=O)O)NC(=O)[C@H](C)NC(=O)[C@@H](NC(=O)[C@H](C)N)C(C)C)C(=O)N[C@@H](CCC(N)=O)C(=O)N[C@@H](CC(C)C)C(=O)N[C@@H](CCSC)C(=O)N[C@@H](Cc1c[nH]cn1)C(=O)N[C@@H](CCC(N)=O)C(=O)N[C@@H](CCCCNC(=N)N)C(=O)N[C@@H](C)C(=O)N[C@@H](CCCCN)C(=O)N[C@@H](Cc1c[nH]c2ccccc12)C(N)=O

cAMP EC50 [3]: 130 µM
cAMP Emax (%) [3]: 37%
B4: [Lys^6, Glu^10]PTH(1-14) (peptide)
peptide: AVAEIKLMHE[hArg]AKW-NH2
modifications: N-terminus assumed
SMILES: CC[C@H](C)[C@H](NC(=O)[C@H](CCC(=O)O)NC(=O)[C@H](C)NC(=O)[C@@H](NC(=O)[C@H](C)N)C(C)C)C(=O)N[C@@H](CCCCN)C(=O)N[C@@H](CC(C)C)C(=O)N[C@@H](CCSC)C(=O)N[C@@H](Cc1c[nH]cn1)C(=O)N[C@@H](CCC(=O)O)C(=O)N[C@@H](CCCCNC(=N)N)C(=O)N[C@@H](C)C(=O)N[C@@H](CCCCN)C(=O)N[C@@H](Cc1c[nH]c2ccccc12)C(N)=O

cAMP EC50 [1]: 0.146 µM
cAMP Emax (%) [1]: 101%
B8: [Aib^1,3, Ala^6]PTH(1-14) (peptide)
peptide: [Aib]V[Aib]EIALMHQ[hArg]AKW-NH2
modifications: N-terminus assumed
SMILES: CC[C@H](C)[C@H](NC(=O)[C@H](CCC(=O)O)NC(=O)C(C)(C)NC(=O)[C@@H](NC(=O)C(C)(C)N)C(C)C)C(=O)N[C@@H](C)C(=O)N[C@@H](CC(C)C)C(=O)N[C@@H](CCSC)C(=O)N[C@@H](Cc1c[nH]cn1)C(=O)N[C@@H](CCC(N)=O)C(=O)N[C@@H](CCCCNC(=N)N)C(=O)N[C@@H](C)C(=O)N[C@@H](CCCCN)C(=O)N[C@@H](Cc1c[nH]c2ccccc12)C(N)=O

cAMP EC50 [1]: 39 µM
cAMP Emax (%) [1]: 79%
cAMP EC50 [2]: 11 µM
cAMP Emax (%) [2]: 88%
Binder: AVAEIQLMHAR-NH2 [[Ala^10]PTH(1-11)]

cAMP EC50 [1]: 0.081 µM
cAMP Emax (%) [1]: 104%
B9: [Aib^1,3, Ala^10]PTH(1-14) (peptide)
peptide: [Aib]V[Aib]EIQLMHA[hArg]AKW-NH2
modifications: N-terminus assumed
SMILES: CC[C@H](C)[C@H](NC(=O)[C@H](CCC(=O)O)NC(=O)C(C)(C)NC(=O)[C@@H](NC(=O)C(C)(C)N)C(C)C)C(=O)N[C@@H](CCC(N)=O)C(=O)N[C@@H](CC(C)C)C(=O)N[C@@H](CCSC)C(=O)N[C@@H](Cc1c[nH]cn1)C(=O)N[C@@H](C)C(=O)N[C@@H](CCCCNC(=N)N)C(=O)N[C@@H](C)C(=O)N[C@@H](CCCCN)C(=O)N[C@@H](Cc1c[nH]c2ccccc12)C(N)=O

cAMP EC50 [1]: 170 µM
cAMP Emax (%) [1]: 42%
cAMP EC50 [2]: 160 µM
cAMP Emax (%) [2]: 41%
Binder: AVAEIALMHAR-NH2 [[Ala^6, Ala^10]PTH(1-11)]
